Source: patent US20260071182A1 (GAIA BIOMEDICINE, published 2026)

Legend:
Experiment in all cases: BLI (Octet RED96), target on sensor, monobody in five 2-fold dilutions
[1] = target: T1, Biotinylated Human NKp46/NCR/CD335 Protein, Fc, Avitag (NC1-H82F9) (human, UniProt O76036 22-255, biotinylated (Avitag))
T1 construct: Bought from ACROBiosystems, catalog NC1-H82F9; not shown: Fc and Avitag of the purchased protein
Method: (§1) The binding abilities and specificities were examined by using an Octet® RED96 (ForteBio) with bio-layer interferometry. Measurement was performed with the following program: Dip for 50 seconds, Load for x seconds (until a signal of 1.0 nm (NKp46, 2B4) or 0.8 nm (Nkp30) was reached), Baseline for 60 seconds, Association for 600 seconds, and Dissociation for 600 seconds. At that time, the monobody concentrations were equally set to 40 nM. The acquired data were analyzed with ForteBio Data Analysis 10.0. Only samples for which binding ability and specificity were found were subjected to measurement of dissociation constants under different conditions. The measurement conditions are shown in a table given below. Dip, Baseline, Association, and Dissociation were performed for the same times as in examining binding ability and specificity. The monobodies were serially diluted from the highest concentration by a factor of 2 to prepare five concentrations for use in measurement.
(§2) The binding abilities and specificities of all the clones expressed and purified in Example 3 were examined, and the values of dissociation constants were measured. FIGS. 5 to 7 show the measurement results. In the top graphs in each of FIGS. 5 to 7, upper lines show results of measurement of the binding abilities of the monobodies with binding of a target to the tip of the sensor, and lower lines show results of examination on whether a monobody was bound only to the sensor without binding of a target to the sensor. Mb in the graphs is an abbreviation for monobody concentration. For any of the clones, the monobody was bound to the sensor when a target was fixed on the sensor, and no binding was found when a target was not fixed on the sensor. The bottom graphs in each of FIGS. 5 to 7 show results of measurement of dissociation constants for five concentrations.

[2] = target: T2, Human NKp30/NCR3/CD337 Protein, Fc Tag (NC3-H5259) (human, UniProt O14931 19-135)
T2 construct: Bought from ACROBiosystems, catalog NC3-H5259; not shown: Fc tag of the purchased protein
T2 sequence (looked up): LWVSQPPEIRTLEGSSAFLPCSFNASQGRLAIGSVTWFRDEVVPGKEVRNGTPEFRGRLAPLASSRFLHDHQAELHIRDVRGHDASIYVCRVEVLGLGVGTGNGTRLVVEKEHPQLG
Method: as §1, §2

[3] = target: T3, Biotinylated Human 2B4/CD244/SLAMF4 Protein, Fc, Avitag (2B4-H82F0) (human, UniProt Q9BZW8-2 22-221, biotinylated (Avitag))
T3 construct: Bought from ACROBiosystems, catalog 2B4-H82F0; not shown: Fc and Avitag of the purchased protein
T3 sequence (looked up): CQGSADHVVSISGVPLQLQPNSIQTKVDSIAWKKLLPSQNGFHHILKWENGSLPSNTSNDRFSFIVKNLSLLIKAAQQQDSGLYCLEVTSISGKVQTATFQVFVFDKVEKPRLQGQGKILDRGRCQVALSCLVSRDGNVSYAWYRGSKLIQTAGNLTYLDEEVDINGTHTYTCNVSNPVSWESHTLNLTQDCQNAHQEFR
Method: as §1, §2

[4] = target: T4, Biotinylated Human 2B4/CD244/SLAMF4 Protein, Fc, Avitag (2B4-H82F0) (human) (UniProt Q9BZW8)
T4 sequence (biotinylated (Avitag), looked up): T3 sequence (looked up)

T1 sequence (O76036 22-255): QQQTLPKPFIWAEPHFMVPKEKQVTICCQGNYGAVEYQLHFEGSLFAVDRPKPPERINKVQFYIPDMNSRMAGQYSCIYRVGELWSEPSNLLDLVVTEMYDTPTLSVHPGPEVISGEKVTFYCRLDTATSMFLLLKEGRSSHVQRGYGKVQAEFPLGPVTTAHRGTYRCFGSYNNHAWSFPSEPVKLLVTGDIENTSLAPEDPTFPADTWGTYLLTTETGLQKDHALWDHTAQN

B1: Mb-NKp46-BC-2 (designed binder)
chain: LEVVEASPTSIQISWDAWTWLGYEYYWVRYYRITYGETGGNSPVQEFTVPGSKSTATISGLKPGVDYTITVYAVTWDSKPGAIGIPISINYRTEIDKPSQ
notes: Monobody on human fibronectin type III domain scaffold, BC-FG library; also called NKp46 BC-FG No. 2; not shown: N-terminal residues of the expression construct (X7n7; the library has MPNR), linker, Sortase A recognition site and His tag
B1 gave a Kd [1] of 1.2 nM, a koff [1] of 0.00047 s⁻¹ and a kon [1] of 380000 M⁻¹ s⁻¹.

B2: Mb-NKp46-CD-1 (designed binder)
chain: LEVVEASPTSIQISWDAPAVTVRYYDIYYGETGPGYYMWQRGVINVQAFTVPGSKSTATISGLKPGVDYTITVYAVTGQERAYGHPEHFPISINYRTEIDKPSQ
notes: Monobody on human fibronectin type III domain scaffold, CD-FG library; also called NKp46 CD-FG No. 1; not shown: N-terminal residues of the expression construct (X7n7; the library has MPNR), linker, Sortase A recognition site and His tag
With B2 the Kd [1] was 0.14 nM, the koff [1] was 7.2e-05 s⁻¹ and the kon [1] was 530000 M⁻¹ s⁻¹.

B3: Mb-NKp30-BC-6 (designed binder)
chain: LEVVEASPTSIQISWDATDRNYDITYGMQVRYYRITYGETGGNSPVQEFTVPGSKSTATISGLKPGVDYTITVYAVTYWWDGYSYSEEAWYYPISINYRTEIDKPSQ
notes: Monobody on human fibronectin type III domain scaffold, BC-FG library; also called NKp30 BC-FG No. 6; not shown: N-terminal residues of the expression construct (X7n7; the library has MPNR), linker, Sortase A recognition site and His tag
B3 was tested, and the Kd [2] was 0.27 nM, the koff [2] was 0.00024 s⁻¹ and the kon [2] was 900000 M⁻¹ s⁻¹.

B4: Mb-NKp30-BC-2 (designed binder)
chain: LEVVEASPTSIQISWDALWHYYGDQYWVRYYRITYGETGGNSPVQEFTVPGSKSTATISGLKPGVDYTITVYAVTWMYVPEYYFNPWPISINYRTEIDKPSQ
notes: Monobody on human fibronectin type III domain scaffold, BC-FG library; also called NKp30 BC-FG No. 2; not shown: N-terminal residues of the expression construct (X7n7; the library has MPNR), linker, Sortase A recognition site and His tag
Binder B4 has a Kd [2] of 0.038 nM, a koff [2] of 2.7e-05 s⁻¹ and a kon [2] of 720000 M⁻¹ s⁻¹.

B5: Mb-2B4-CD-3 (designed binder)
chain: LEVVEASPTSIQISWDAPAVTVRYYEILYGETGTPPWIHKGWVQYFTVPGSKSTATISGLKPGVDYTITVYAVTVTPYGRKWVGMNGWPISINYRTEIDKPSQ
notes: Monobody on human fibronectin type III domain scaffold, CD-FG library; also called 2B4 CD-FG No. 3; not shown: Sortase A recognition site, His tag and any linker (X8n8) at the C terminus; MPNR in the library
For B5, the Kd [3] was 1.5 nM, the koff [3] was 0.00035 s⁻¹ and the kon [3] was 230000 M⁻¹ s⁻¹.

B6: Mb-2B4-BC-2 (designed binder, part only; not given: N-terminal start, linker, sortase site, tag, not shown: small tags and cut ends)
chain, part: LEVVEASPTSIQISWDAQAYWFEYTWWVRYYRITYGETGGNSPVQEFTVPGSKSTATISGLKPGVDYTITVYAVTLEWVYDDQWTSGPISINYRTEIDKPSQ
In the case of B6, the Kd [4] is reported as 1 nM, the koff [4] is reported as 9.3e-05 s⁻¹ and the kon [4] is reported as 92000 M⁻¹ s⁻¹.

B7: Mb-NKp30-CD-9 (designed binder)
chain: LEVVEASPTSIQISWDAPAVTVRYYVITYGETGWSWESYWHGTYVQQFTVPGSKSTATISGLKPGVDYTITVYAVTTFMKDIPSYYPISINYRTEIDKPSQ
notes: Monobody on human fibronectin type III domain scaffold, CD-FG library; also called NKp30 CD-FG No. 9; not shown: N-terminal residues of the expression construct (X7n7; the library has MPNR), linker, Sortase A recognition site and His tag
B7 showed a Kd [2] of 0.35 nM, a koff [2] of 0.00029 s⁻¹ and a kon [2] of 810000 M⁻¹ s⁻¹.

B8: Mb-NKp46-BC-3 (designed binder)
chain: LEVVEASPTSIQISWDATYWDWGFRVRYYRITYGETGGNSPVQEFTVPGSKSTATISGLKPGVDYTITVYAVTWSWARRTHISWFPISINYRTEIDKPSQ
notes: Monobody on human fibronectin type III domain scaffold, BC-FG library; also called NKp46 BC-FG No. 3; not shown: N-terminal residues of the expression construct (X7n7; the library has MPNR), linker, Sortase A recognition site and His tag
B8 showed a Kd [1] of less than 0.01 nM, a koff [1] of less than 1e-06 s⁻¹ and a kon [1] of 100000 M⁻¹ s⁻¹.

B9: Mb-NKp46-CD-3 (designed binder)
chain: LEVVEASPTSIQISWDAPAVTVRYYVISYGETGRYKYHRRINVQGFTVPGSKSTATISGLKPGVDYTITVYAVTGTQWYVFNEAGDVAGYPISINYRTEIDKPSQ
notes: Monobody on human fibronectin type III domain scaffold, CD-FG library; also called NKp46 CD-FG No. 3; not shown: N-terminal residues of the expression construct (X7n7; the library has MPNR), linker, Sortase A recognition site and His tag
In the case of B9, the Kd [1] is reported as 0.98 nM, the koff [1] is reported as 7e-05 s⁻¹ and the kon [1] is reported as 72000 M⁻¹ s⁻¹.

B10: Mb-2B4-CD-1 (designed binder)
chain: LEVVEASPTSIQISWDAPAVTVRYYGIYYGETGTSPWVYNGYVQEFTVPGSKSTATISGLKPGVDYTITVYAVTDQYKSWNLEEFHPISINYRTEIDKPSQ
notes: Monobody on human fibronectin type III domain scaffold, CD-FG library; also called 2B4 CD-FG No. 1; not shown: Sortase A recognition site, His tag and any linker (X8n8) at the C terminus; MPNR in the library
With B10 the Kd [3] was 2.8 nM, the koff [3] was 0.0002 s⁻¹ and the kon [3] was 71000 M⁻¹ s⁻¹.
